Literature values in paper PMC2806950.

Biological target: EcoKI R/M enzyme (Escherichia coli) (UniProt P08956)
Assay: given as Ka

EcoKI R/M enzyme (Escherichia coli), sequence (P08956 whole entry, chain 1 of 3): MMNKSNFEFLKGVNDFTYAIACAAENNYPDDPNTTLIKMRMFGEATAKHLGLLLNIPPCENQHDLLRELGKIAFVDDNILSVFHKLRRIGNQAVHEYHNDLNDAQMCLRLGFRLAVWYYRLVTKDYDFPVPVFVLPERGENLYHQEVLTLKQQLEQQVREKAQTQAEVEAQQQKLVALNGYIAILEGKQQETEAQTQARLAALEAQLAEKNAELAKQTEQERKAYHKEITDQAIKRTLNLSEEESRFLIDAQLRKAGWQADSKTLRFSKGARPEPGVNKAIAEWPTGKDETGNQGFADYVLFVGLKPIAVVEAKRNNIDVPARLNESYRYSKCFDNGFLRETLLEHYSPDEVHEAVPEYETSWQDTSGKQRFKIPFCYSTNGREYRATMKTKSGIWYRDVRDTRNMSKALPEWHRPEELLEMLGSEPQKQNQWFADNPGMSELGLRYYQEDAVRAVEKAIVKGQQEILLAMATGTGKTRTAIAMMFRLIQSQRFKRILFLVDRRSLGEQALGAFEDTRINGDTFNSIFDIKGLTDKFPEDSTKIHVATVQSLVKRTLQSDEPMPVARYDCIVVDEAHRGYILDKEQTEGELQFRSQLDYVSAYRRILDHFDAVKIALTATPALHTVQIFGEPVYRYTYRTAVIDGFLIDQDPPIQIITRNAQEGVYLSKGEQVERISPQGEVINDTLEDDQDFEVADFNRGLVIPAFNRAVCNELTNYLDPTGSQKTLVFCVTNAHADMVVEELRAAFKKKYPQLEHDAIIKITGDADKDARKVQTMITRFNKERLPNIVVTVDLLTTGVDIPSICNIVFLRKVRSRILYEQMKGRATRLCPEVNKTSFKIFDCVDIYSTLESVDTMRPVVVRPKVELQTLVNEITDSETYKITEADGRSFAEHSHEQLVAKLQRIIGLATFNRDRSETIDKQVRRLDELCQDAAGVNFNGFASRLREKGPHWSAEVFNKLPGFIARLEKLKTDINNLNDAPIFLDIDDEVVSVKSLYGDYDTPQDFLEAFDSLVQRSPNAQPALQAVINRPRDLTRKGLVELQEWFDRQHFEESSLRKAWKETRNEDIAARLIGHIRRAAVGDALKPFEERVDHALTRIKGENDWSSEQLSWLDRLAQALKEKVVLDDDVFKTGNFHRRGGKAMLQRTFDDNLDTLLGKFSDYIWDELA
EcoKI R/M enzyme (Escherichia coli), sequence (P08957 whole entry, chain 2 of 3, further chain): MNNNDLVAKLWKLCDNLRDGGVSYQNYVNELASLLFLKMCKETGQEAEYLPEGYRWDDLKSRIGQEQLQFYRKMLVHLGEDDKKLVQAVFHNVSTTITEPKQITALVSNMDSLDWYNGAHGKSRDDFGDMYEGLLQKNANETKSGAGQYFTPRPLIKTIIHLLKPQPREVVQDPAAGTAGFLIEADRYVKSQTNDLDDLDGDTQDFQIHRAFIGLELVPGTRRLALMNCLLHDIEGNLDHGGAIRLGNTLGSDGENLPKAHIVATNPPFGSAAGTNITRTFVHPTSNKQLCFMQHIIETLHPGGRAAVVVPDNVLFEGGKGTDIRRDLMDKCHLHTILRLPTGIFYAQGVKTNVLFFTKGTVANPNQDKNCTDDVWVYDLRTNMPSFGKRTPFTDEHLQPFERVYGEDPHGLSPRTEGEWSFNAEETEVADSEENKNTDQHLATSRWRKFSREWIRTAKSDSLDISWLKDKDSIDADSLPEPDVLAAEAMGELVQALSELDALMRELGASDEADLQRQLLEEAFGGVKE
EcoKI R/M enzyme (Escherichia coli), sequence (P05719 2-464, chain 3 of 3, further chain): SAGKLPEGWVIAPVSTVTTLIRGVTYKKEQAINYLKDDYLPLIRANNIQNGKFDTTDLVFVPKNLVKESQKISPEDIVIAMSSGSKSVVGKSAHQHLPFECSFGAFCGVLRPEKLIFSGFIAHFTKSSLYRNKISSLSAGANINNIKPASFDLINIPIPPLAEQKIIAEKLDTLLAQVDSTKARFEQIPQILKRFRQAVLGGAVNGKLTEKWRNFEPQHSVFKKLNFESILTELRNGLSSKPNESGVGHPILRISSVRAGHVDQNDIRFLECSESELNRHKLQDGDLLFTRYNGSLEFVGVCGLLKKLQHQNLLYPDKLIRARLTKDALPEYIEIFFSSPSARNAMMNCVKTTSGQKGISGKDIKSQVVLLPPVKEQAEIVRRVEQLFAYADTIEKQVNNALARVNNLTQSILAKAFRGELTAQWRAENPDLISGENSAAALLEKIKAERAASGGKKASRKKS
Ocr, sequence (P03775 whole entry): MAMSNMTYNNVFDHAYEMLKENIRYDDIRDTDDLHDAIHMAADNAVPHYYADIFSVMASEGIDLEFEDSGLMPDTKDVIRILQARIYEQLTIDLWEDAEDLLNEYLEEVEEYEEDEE

Substance: Ocr (from UniProt P03775)
- Kd: 0.05 nM
